The target of this test is calmodulin (CaM) (UniProt P62157 1-149). In words: cell-based or functional assay.

B1: FLAG-DAPK2 WT (enzyme)
chain: MFQASMRSPNMEPFKQQKVEDFYDIGEELGSGQFAIVKKCREKSTGLEYAAKFIKKRQSRASRRGVSREEIEREVSILRQVLHHNVITLHDVYENRTDVVLILELVSGGELFDFLAQKESLSEEEATSFIKQILDGVNYLHTKKIAHFDLKPENIMLLDKNIPIPHIKLIDFGLAHEIEDGVEFKNIFGTPEFVAPEIVNYEPLGLEADMWSIGVITYILLSGASPFLGDTKQETLANITAVSYDFDEEFFSQTSELAKDFIRKLLVKETRKRLTIQEALRHPWITPVDNQQAMVRRESVVNLENFRKQYVRRRWKLSFSIVSLCNHLTRSLMKKVHLRPDEDLRNCESDTEEDIARRKALHPRRRSSTS
For B1, the “fold induction of the catalytic activity (MLC phosphorylation, in vitro kinase assay) upon addition of Ca2+/CaM against EGTA” value is 5.7 fold.

(Values after publication PMC5931534, “Non-canonical activation of DAPK2 by AMPK constitutes a new pathway linking metabolic stress to autophagy” (Nature Communications, 2018).)
